Read-outs that look alike come from different tables or passages of the source.
Key:
[1] = target: CA/I-A^k: hen egg conalbumin peptide (residues 134-146) fused by a flexible linker to the N-terminus of the I-A^k β chain, with the I-A^k α chain; leucine zippers cleaved off by thrombin (hen; mouse) (UniProt P02789); assay: method not stated; cited as refs. 5, 26 ('Our unpublished results')
[2] = target: hen egg conalbumin (CA) peptide on I-Ak (mouse); assay: single-chain
[3] = target: VSV8 octapeptide (RGYVYQGL) bound to K^b on presenting cells (vesicular stomatitis virus; mouse) (UniProt P01887); assay: cell-based or functional assay
[4] = tested on: DP thymocytes of N15 tg Rag-2−/− H-2b mice; details: mouse, in vivo
[5] = tested on: N15 TCRs on immature thymocytes; format: cell-based, mouse
[6] = target: N15 TCR; format: binding, mouse; details: read-out: monomeric affinity of the N15 TCR for peptide/K^b
[7] = target: Tax (peptide residues not given) peptide on HLA-A2 (human)
[8] = target: vesicular stomatitis virus nuclear protein (VSV8) peptide on H-2Kb (mouse)
[9] = target: vesicular stomatitis virus nuclear protein (VSV8) peptide on H-2Kb (mouse); assay: full-length, on cells
[10] = target: vesicular stomatitis virus nuclear protein (VSV8) peptide on H-2Kb (mouse); remark: listed apart in the source
[11] = target: Tax (peptide residues not given) peptide on HLA-A2 (human); remark: listed apart in the source
[12] = target: dEV8 (peptide name as printed; residues not given) peptide on H-2Kb (mouse)
[13] = target: dEV8 (peptide name as printed; residues not given) peptide on H-2Kb (mouse); remark: listed apart in the source
[14] = target: VSV8/K^b (as in the statement of the monomeric affinity; construct not described) (vesicular stomatitis virus; mouse) (UniProt P01901); assay: method not stated; BIAcore implied by the sentence
Chain of UniProt P01901 (P01901 22-305): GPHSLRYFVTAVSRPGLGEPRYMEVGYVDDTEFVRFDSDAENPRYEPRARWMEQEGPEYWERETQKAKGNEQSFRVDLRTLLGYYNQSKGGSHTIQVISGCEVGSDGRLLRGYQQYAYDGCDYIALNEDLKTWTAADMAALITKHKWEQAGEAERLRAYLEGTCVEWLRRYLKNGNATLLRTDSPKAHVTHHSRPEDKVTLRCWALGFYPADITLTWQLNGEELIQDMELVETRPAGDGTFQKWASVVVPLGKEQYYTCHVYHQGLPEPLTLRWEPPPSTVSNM

**Q.** With “scD10 TCR (single chain V module of the D10 TCR: Vβ8.2-linker-Vα2, 237 residues, Cys235Ser)” as the substance, how does the Kd [1] read?
**A.** 1 to 2 µM

**Q.** Which orientation angle of the TCR on the pMHC [2] does the source give for D10 TCR here?
**A.** 80 °

**Q.** “N15 TCR (on thymocytes and splenic T cells of N15 TCR transgenic mice)” was tested. Which DP thymocyte dulling assay: fraction of DP thymocytes dulled [3] did it give?
**A.** 5%

**Q.** With RGYVYQGL [VSV8] as the substance, how does the “surviving thymocytes that were DP” value [4] read?
**A.** < 10%

**Q.** What about the “% of DP thymocytes” value ([4]; iv) of the same substance?
**A.** 14%

**Q.** And the “fraction of DP thymocytes dulled” value [5]?
**A.** ~5%

**Q.** What about the “thymocytes falling in the expected CD4/CD8 expression range of DP thymocytes” value [5] of the same substance?
**A.** 10-26%

**Q.** What about the Kd [6] of the same substance?
**A.** > 200 µM

**Q.** With A6 TCR as the substance, how does the orientation angle of the TCR on the pMHC [7] read?
**A.** 56 °

**Q.** N15 TCR was tested. Which Kd [8] did it give?
**A.** > 200 µM

**Q.** What about the % CD8 SP thymocytes after 7 days of FTOC [9] of the same substance?
**A.** 1%

**Q.** What about the % DP thymocytes 24 h after injection [9] of the same substance?
**A.** 14%

**Q.** And the orientation angle of the TCR on the pMHC [10]?
**A.** 54 °

**Q.** How did the orientation angle of the TCR on the pMHC [11] turn out when B7 TCR was run?
**A.** 70 °

**Q.** How did the Kd [12] turn out when 2C TCR was run?
**A.** 100 µM

**Q.** And the orientation angle of the TCR on the pMHC [13]?
**A.** 45 °

**Q.** How did the Kd [14] turn out when “N15 TCR (as in the statement of its monomeric affinity; construct not described)” was run?
**A.** > 200 µM
